Measurements as given in publication PMC8699970.

How the values were obtained:
[1] = target: AjNLRC4 (native, on coelomocytes) (Apostichopus japonicus (endogenous in coelomocytes)); experiment: cross-linking; sea cucumbers injected with V. splendidus for 30 min; coelomocytes treated with BS3 (5 mM, 4°C, 1 h); SDS-PAGE and western blotting with anti-AjNLRC4 antibodies
[2] = target: GST-tagged AjNLRC4-IN (intracellular fragment of AjNLRC4 with the NACHT domain) (Apostichopus japonicus); experiment: MST; Monolith NT; labeled GST-AjNLRC4-IN (10 μM) constant, a range of concentrations of His-β-Actin; 50 mM Tris-HCl pH 7.8, 150 mM NaCl, 10 mM MgCl2, 0.05% Tween-20; 10 min incubation; 20% LED power, 80% MST power

oligomeric state (subunits per complex) [1]	Kd [2]	Substance
2	–	AjNLRC4 (native, on coelomocytes) (receptor)
–	5.87 µM	His-tagged Ajβ-actin (natural protein)
